According to article PMC3114107:
Like-named read-outs stand apart in the source and are kept apart here.

Tests used:
[Lys]plasminogen (human) [1] = steady-state kinetics of Pg activation
[Lys]plasminogen (human) [2] = steady-state kinetics of Pg activation; remark: listed apart in the source
[3] = target: [5F]FFR-[Lys]Pg ([Lys]plasminogen inactivated with ATA-FFR-CH2Cl and labeled with 5-(iodoacetamido)fluorescein) (human); assay: other fluorescence titration
[4] = target: [5F]FFR-[Lys]Pg ([Lys]plasminogen inactivated with ATA-FFR-CH2Cl and labeled with 5-(iodoacetamido)fluorescein) (human); assay: other fluorescence titration; remark: listed apart in the source

Sequence of [Lys]plasminogen (human) (P00747 whole entry): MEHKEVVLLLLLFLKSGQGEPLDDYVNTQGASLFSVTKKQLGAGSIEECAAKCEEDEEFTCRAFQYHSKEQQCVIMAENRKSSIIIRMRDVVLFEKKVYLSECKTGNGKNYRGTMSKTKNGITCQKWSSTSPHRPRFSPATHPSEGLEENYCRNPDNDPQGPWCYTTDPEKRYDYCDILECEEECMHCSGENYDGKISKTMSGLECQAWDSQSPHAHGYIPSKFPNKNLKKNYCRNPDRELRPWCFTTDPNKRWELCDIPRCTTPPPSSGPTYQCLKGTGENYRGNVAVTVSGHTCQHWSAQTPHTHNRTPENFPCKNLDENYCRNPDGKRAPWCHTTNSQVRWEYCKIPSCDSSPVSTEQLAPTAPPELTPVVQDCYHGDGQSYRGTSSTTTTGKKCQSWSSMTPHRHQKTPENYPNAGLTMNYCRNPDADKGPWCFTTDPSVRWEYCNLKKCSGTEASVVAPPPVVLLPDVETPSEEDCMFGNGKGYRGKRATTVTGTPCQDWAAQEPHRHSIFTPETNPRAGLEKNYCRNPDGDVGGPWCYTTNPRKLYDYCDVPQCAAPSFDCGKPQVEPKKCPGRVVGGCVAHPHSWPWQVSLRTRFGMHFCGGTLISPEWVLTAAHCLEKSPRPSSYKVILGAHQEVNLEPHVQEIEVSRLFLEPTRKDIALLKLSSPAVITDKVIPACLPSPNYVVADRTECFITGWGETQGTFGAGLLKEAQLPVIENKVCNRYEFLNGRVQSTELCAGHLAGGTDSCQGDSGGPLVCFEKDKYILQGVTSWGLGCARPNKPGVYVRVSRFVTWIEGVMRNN
Sequence of [5F]FFR-[Lys]Pg ([Lys]plasminogen inactivated with ATA-FFR-CH2Cl and labeled with 5-(iodoacetamido)fluorescein) (human) (P00747 whole entry): as above

| Substance | Kd ([Lys]plasminogen (human) [1]) [µM] | Kd ([Lys]plasminogen (human) [2]) [µM] | Kd [3] [µM] | Kd [4] [µM] |
| --- | --- | --- | --- | --- |
| recombinant wild-type streptokinase (from UniProt P00779 27-440) (natural protein) | 0.033 | 0.0016 |  |  |
| Native streptokinase (from UniProt P00779 27-440) (natural protein) |  | 0.0016 |  |  |
| wtSK-His6 (TEVp-cleaved His6-wtSK-His6) (from UniProt P00779 27-440) (natural protein) | 0.032 |  | 0.24 | 0.29 |
| SKΔ(R253-L260) (from UniProt P00779 27-440) (natural protein) | 0.078 |  |  |  |
| SKΔ(R253-L260)ΔK414-His6 (TEVp-cleaved His6-(TEVp cleavage site)-SKΔ(R253-L260)ΔK414-His6) (from UniProt P00779 27-440) (natural protein) |  | 0.028 | 0.47 | 0.82 |
